In patent CN114409788A (WEST CHINA HOSPITAL OF SICHUAN UNIV, dated 2022):

Tests used:
[1] = target: T1, human CD38 Protein (ECD, His Tag) (human, UniProt P28907 43-300); test: ELISA, human CD38 ECD-His coated on plate, detection with HRP goat anti-mouse IgM, OD450
T1 construct: extracellular domain; Commercial recombinant antigen coated on the ELISA plate at 0.5 ug/ml; also called 未标记抗原; not shown: His tag
T1 sequence (looked up): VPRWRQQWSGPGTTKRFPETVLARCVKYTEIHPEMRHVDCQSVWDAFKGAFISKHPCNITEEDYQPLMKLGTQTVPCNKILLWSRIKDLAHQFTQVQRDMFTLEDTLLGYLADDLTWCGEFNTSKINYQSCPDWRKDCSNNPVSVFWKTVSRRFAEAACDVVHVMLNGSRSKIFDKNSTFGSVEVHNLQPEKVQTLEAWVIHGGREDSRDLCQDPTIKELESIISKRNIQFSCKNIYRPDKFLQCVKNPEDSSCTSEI

mono-Mac-6细胞表面的CD38 = target: T2, mono-Mac-6细胞表面的CD38 (UniProt P28907 1-300, limits assumed); test: flow cytometry on mono-Mac-6 cells, antibody production supernatant, APC anti-IgM secondary antibody
T2 construct: whole, on cells; also called CD38 on mono-Mac-6 cells
T2 sequence (looked up): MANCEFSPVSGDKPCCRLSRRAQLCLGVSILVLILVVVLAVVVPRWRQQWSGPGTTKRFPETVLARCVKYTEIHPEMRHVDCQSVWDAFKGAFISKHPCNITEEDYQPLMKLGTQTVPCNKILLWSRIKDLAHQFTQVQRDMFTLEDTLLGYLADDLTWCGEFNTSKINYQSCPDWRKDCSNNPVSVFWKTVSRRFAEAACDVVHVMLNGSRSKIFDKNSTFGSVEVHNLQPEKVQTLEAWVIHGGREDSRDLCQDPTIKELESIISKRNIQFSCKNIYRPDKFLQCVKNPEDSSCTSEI

binding result [1]: binds
binding result (mono-Mac-6细胞表面的CD38): binds
B1: 单克隆抗体70B5 (抗CD38的单克隆抗体) (antibody, V domains shown)
VH: EVQLQQSGPELVKPGASVKISCKASGYTFTDYYMNWVKQSHGKSLEWIGDINPNNGGTSYNQKFKGKATLTVDKSSSTAYMELRSLTSEDSAVYYCARGYYSNPFDVWGTGTTVTVSS
VL: DIQMTQSPSSLSASLGERVSLTCRASQDIGSSLNWLQQEPDGTIKRLIYATSSLDSGVPKRFSGSRSGSDYSLTISSLESEDFVDYYCLQYASSPLTFGAGTKLELK
notes: also called 70B5抗体
